Legend:
[1] = target: T1, CRF-BP(10 Kd)_CRFR2 chimera (Homo sapiens, UniProt P24387+Q13324); assay: FLIPR intracellular calcium release, HEK 293 cells expressing CRF-BP(10 Kd)_CRFR2 chimera; assay type: cell-based
T1 construct: The CRF-BP (10 Kd) fragment is comprised of 88 amino acid residues (A235 to L322); DNA encoding the CRFR2 protein was amplified using the ssHA CRFR2_Zeo plasmid DNA template; FLAG (N); expressed in transfected cells
T1 sequence (P24387+Q13324 with tags, fused parts or gaps): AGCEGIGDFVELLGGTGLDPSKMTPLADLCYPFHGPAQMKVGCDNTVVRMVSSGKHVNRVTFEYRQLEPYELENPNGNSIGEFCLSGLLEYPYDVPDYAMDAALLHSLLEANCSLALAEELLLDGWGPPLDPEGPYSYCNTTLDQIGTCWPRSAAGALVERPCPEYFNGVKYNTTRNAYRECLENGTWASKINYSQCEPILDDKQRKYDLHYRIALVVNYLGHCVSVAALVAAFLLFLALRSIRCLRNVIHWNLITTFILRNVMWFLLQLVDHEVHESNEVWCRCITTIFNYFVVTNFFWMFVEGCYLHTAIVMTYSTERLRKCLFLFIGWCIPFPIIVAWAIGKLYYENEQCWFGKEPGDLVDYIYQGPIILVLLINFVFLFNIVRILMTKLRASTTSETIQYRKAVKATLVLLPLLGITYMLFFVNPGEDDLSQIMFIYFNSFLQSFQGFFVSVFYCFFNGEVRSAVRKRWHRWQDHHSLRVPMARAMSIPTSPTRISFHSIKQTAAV
Method: (§1) The mammalian cells expressing the isolated chimera constructs were tested for the ability of the chimera proteins to activate intracellular calcium release via signaling through Gq. HEK 293 cells of Example 2 expressing the constructs of Example 1 were grown in 10% FBS in DMEM cell media with hygromycin (0.4%) selection reagent. Cells were plated out in 96-well plates (40 000 cells/well) in FBS/DMEM media. On the following day, cells were serum starved (1% FBS in DMEM; 100 μl/well) for 2 hours prior to testing.
(§2) Cells were loaded with diluted FLIPR™ dye (100 μl) for one hour prior to testing with CRF. The selected hygromycin resistant cells were plated in 96-well clear bottom black microplates at a density of approximately 40,000 cells/well, in DMEM/10% FBS media. […]
(§3) A FlexStation (Molecular Devices) fluorometric imaging plate reader was used to measure changes in intracellular Ca^2+. […] The machine was used in Flex mode, and the fluorescent intensity was measured from the bottom with the excitation at 485 nm and emission at 525 nm for 120 seconds at 21° C.
Results are expressed as the mean (±SEM) relative fluorescent units (RFUs), calculated as agonist-induced maximum Ca^2+ peak/cell number×1000.

CRF-BP_NK1R chimera = target: T2, CRF-BP_NK1R chimera (Homo sapiens, UniProt P24387+P25103); assay: FLIPR intracellular calcium release, HEK-293 cells expressing CRF-BP_NK1R chimera; assay type: cell-based; settings: 1 pM-10 μM, FIGS. 9, 10
T2 construct: the construct used to create a CRF-BP(FL)_NK1R chimera; FLAG (N); expressed in transfected cells
T2 sequence (P24387+P25103 fused, change not shown): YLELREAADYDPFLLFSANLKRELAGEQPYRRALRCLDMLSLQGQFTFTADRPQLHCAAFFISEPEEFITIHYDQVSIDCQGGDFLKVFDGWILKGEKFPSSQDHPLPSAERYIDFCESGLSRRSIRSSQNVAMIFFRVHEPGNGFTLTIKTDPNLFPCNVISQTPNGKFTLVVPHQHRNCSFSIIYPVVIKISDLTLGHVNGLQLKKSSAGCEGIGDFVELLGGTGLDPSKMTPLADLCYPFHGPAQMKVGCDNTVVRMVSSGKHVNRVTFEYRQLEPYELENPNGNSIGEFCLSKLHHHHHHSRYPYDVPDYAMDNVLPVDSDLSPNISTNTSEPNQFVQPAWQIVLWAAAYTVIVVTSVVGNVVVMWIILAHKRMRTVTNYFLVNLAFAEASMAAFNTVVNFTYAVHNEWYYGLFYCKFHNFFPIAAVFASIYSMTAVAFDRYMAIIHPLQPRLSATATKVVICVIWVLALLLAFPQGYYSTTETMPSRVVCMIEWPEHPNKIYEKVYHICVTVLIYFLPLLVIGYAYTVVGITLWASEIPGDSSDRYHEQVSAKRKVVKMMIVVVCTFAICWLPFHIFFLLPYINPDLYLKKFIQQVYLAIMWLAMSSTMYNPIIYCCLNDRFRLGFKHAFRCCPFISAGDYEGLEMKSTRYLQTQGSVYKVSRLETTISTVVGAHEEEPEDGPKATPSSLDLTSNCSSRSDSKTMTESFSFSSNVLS
Method: The mammalian cells expressing the various isolated chimera constructs were tested for the ability of the chimera proteins to activate intracellular calcium release. The HEK-293 cells of Example 5 expressing the constructs of Example 4 were grown in 10% FBS in DMEM cell media with hygromycin (0.4%) as a selection reagent. Cells were plated out in 96-well plates (40 000 cells/well) in FBS/DMEM media. On the following day, cells were serum starved (1% FBS in DMEM; 100 μl/well) for 2 hours prior to testing.

[2] = test system: recombinant dopamine receptor; assay: Negative control calcium release, HEK 293 cells expressing a recombinant dopamine receptor; assay type: cell-based; settings: HEK 293 cells expressing recombinant dopamine receptor; FIG. 7
Method: (§4) As a negative control, the effect of CRF on HEK 293 cells that had not been transfected or which expressed a recombinant dopamine receptor was measured.

IGF-BP2_CRFR chimera = assay: FLIPR intracellular calcium release, HEK-293 cells expressing IGF-BP2_CRFR2 chimera; assay type: cell-based, human; settings: CRF 1 pM-10 μM, FIG. 13
Method: The mammalian cells expressing the various isolated chimera constructs were tested for the ability of the chimera proteins to activate intracellular calcium release. The HEK-293 cells expressing the constructs of Example 9 were grown in 10% FBS in DMEM cell media with hygromycin (0.4%) selection reagent. The cells were plated out in 96-well plates (40 000 cells/well) in FBS/DMEM media. On the following day, cells were serum starved (1% FBS in DMEM; 100 μl/well) for 2 hours prior to testing.
The cells were loaded with diluted FLIPR™ dye (100 μl) for one hour prior to testing with CRF. The selected hygromycin resistant cells were plated in 96-well clear bottom black microplates at a density of approximately 40,000 cells/well, in DMEM/10% FBS media. […]
as §3
The results of the FLIPR experiments detecting the levels of intracellular calcium induced by activation of the chimeras with CRF are shown in FIG. 13. […] Results are expressed as the mean (±SEM) relative fluorescence units (RFU), calculated as agonist-induced maximum Ca^2+ peak/cell number×1000.

CRF-BP(FL)_CRFR2 chimera = target: T3, CRF-BP(FL)_CRFR2 chimera (Homo sapiens, UniProt P24387+Q13324); assay: FLIPR intracellular calcium release, agonist mode, HEK 293 cells expressing full-length CRF-BP_CRFR2 chimera; assay type: cell-based
T3 construct: DNA encoding the CRFR2 protein was amplified using the ssHA CRFR2_Zeo plasmid DNA template; FLAG (N); expressed in transfected cells
T3 sequence (P24387+Q13324 with tags, fused parts or gaps): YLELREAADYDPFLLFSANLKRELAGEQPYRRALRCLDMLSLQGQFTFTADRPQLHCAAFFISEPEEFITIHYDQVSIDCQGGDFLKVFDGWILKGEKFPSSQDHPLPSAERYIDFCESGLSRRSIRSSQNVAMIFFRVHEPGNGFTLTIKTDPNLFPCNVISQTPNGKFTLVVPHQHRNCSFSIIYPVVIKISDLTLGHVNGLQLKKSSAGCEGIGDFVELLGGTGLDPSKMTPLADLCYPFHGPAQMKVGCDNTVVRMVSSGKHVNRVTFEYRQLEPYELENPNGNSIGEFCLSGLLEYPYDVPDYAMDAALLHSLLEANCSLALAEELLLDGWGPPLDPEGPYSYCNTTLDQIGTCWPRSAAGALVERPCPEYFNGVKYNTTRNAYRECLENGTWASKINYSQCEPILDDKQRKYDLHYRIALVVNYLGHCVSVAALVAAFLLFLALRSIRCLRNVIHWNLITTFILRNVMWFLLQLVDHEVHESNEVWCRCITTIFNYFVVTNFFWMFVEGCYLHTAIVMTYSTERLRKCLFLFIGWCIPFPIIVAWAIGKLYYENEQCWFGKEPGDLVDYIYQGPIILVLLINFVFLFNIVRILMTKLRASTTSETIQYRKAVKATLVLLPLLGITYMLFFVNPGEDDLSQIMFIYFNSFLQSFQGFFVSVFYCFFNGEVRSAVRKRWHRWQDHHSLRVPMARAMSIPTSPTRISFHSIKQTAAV
Method: as §1, §2, §3
The results of the FLIPR experiments detecting the levels of intracellular calcium induced by activation of the chimera with CRF are shown in FIGS. 3-5. […] Results are expressed as the mean (±SEM) relative fluorescent units (RFU), calculated as agonist-induced maximum Ca^2+ peak/cell number×1000.

[3] = test system: untransfected HEK 293 cells; assay: Negative control calcium release, HEK 293 cells not transfected; assay type: cell-based, human; settings: FIG. 7
Method: as §4

[4] = CRF, intracellular calcium release

Corticotropin Releasing Factor [CRF]
intracellular calcium release (RFU) ([1]; CRF 1 pM-10 μM, compared with full-length chimera, FIG. 6): even more robust signaling than the full-length CRF-BP_CRFR2 chimera | signaling through the chimera compared with CRFR2 alone [1, 4]: more effectively than CRF at CRFR2 alone | intracellular calcium release (RFU) (CRF-BP_NK1R chimera): different levels of CRF-induced (1 pM-10 μM) intracellular calcium release in the HEK-293 cells corresponding to the concentration of CRF | intracellular calcium signaling [2]: did not display any significant signaling | intracellular calcium release (RFU) (IGF-BP2_CRFR chimera): different levels of CRF-induced (1 pM-10 μM) intracellular calcium release in the HEK-293 cells corresponding to the concentration of CRF | intracellular calcium release (agonist-induced maximum Ca2+ peak, RFU) (CRF-BP(FL)_CRFR2 chimera; 1 pM-10 μM, HEK 293 cells, FIGS. 3-5): increased as the concentration of CRF was increased | signaling through the chimera compared with CRFR2 alone (CRF-BP(FL)_CRFR2 chimera; [4]): more effectively than CRF at CRFR2 alone | intracellular calcium signaling [3]: did not display any significant signaling

From patent US20110027909A1, “Chimera Compositions and Methods of Use” (priority 2009, published 2011)
